This passage reports reverse-splicing fitness results from the RNAGym collection of RNA variant scans (doi:10.1093/molbev/msab373).

First the molecules themselves.
B1: Azoarcus group I ribozyme (parent)
chain: GUGCCUUGCGCCGGGAAACCACGCAAGGGAUGGUGUCAAAUUCGGCGAAACCUAAGCGCCCGCCCGGGCGUAUGGCAACGCCGAGCCAAGCUUCGGCGCCUGCGCCGAUGAAGGUGUAGAGACUAGACGGCACCCACCUAAGGCAAACGCUAUGGUGAAGGCAUAGUCCAGGGAGUGGCGAAAGUCACACAAACCGG

In this data set the parent is B1. The experiment in a line: reverse-splicing fitness (ratio to wild type); higher = more active; in vitro selection; Mg2+ level not given. In a few lines: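 An in vitro group I ribozyme library with randomized positions was T7-transcribed and gel-purified. In triplicate, 10 pmol RNA in EPPS pH 7.5 was reacted with 50 pmoles of a 30-nt RNA substrate for 1 h at 37 °C across several added MgCl2 levels (1–48 mM), then stopped with EDTA. Products were reverse transcribed from a substrate-complementary primer, PCR-amplified and sequenced (HiSeq 4000). Fitness is a variant's read proportion after selection over that before, normalised to wild type.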
For the variant GUGCCUUGCGCCGGGAAACCACGCAAGGGAUGGUGUCAAAUUCGGCGAAACCUAAGCGCCCGCCCGGGCGUAUGGCAACGCGGAGCCAAGCUUCGGCGCCUGCGCCGAUGAAGGUGUAGAGACUAGACGGCACCCACCUAAGGCUAACGGUAUGGUGAAGGCAUAGUCCAGGGAGGGGCGAAAGUCACACAAACCGG [C82G A145U C150G U176G], the reverse-splicing fitness is 0.0103.
With GUGCCUUGCGCCGGGAAACCACGCAAGGGAUGGUGUCAAAUUCGGCGAAACCUAAGCGCCCGCCCGGGCGUAUGGCAACGCUGAGCCAAGCUUCGGCGCCUGCGCCGAUGUAGGUGUAGAGACUAGACGGCACCCACCUAAGGCAAACGUUAUGGUGAAGGCAUAGUCCAGGGAGUGGCGAAAGUCACACAAACCGG [C82U A111U C150U], the reverse-splicing fitness amounted to 0.157.
Consider GUGCCUUGCGCCGGGAAACCACGCAAGGGAUGGUGUCAAAUUCGGCGAAACCUAAGCGCCCGCCCGGGCGUAUGGCAACGCGGAGCCAAGCUUCGGCGCCUGCGCCGAUGGAGGUGUAGAGACUAGACGGCACCCACCUAAGGCCAACGCUAUGGUGAAGGCAUAGUCGAGGGAGUGGCGAAAGUCACACAAACCGG [C82G A111G A145C C169G], for which the reverse-splicing fitness worked out at 0.00994.
In the case of GUGCCUUGCGCCGGGAAACCACGCAAGGGAUGGUGUCAAAUUCGGCGAAACCUAAGCGCCCGCCCGGGCGUAUGGCAACGCAGAGCCAAGCUUCGGCGCCUGCGCCGAUGCAGGUGUAGGGACUAGACGGCACCCACCUAAGGCGAACGGUAUGGUGAAGGCAUAGUCGAGGGAGUGGCGAAAGUCACACAAACCGG [C82A A111C A120G A145G C150G C169G], the reverse-splicing fitness worked out at 0.00706.
As for GUGCCUUGCGCCGGGAAACCACGCAAGGGAUGGUGUCAAAUUCGGCGAAACCUAAGCGCCCGCCCGGGCGUAUGGCAACGCCGAGCCAAGCUUCGGCGCCUGCGCCGAUGCAGGUGUAGAGACUAGACGGCACCCACCUAAGGCGAACGUUAUGGUGAAGGCAUAGUCAAGGGAGUGGCGAAAGUCACACAAACCGG [A111C A145G C150U C169A], the figure is 0.0243.
For GUGCCUUGCGCCGGGAAACCACGCAAGGGAUGGUGUCAAAUUCGGCGAAACCUAAGCGCCCGCCCGGGCGUAUGGCAACGCUGAGCCAAGCUUCGGCGCCUGCGCCGAUGAAGGUGUAGCGACUAGACGGCACCCACCUAAGGCAAACGAUAUGGUGAAGGCAUAGUCGAGGGAGUGGCGAAAGUCACACAAACCGG [C82U A120C C150A C169G], the reverse-splicing fitness came to 0.00799.
Consider GUGCCUUGCGCCGGGAAACCACGCAAGGGAUGGUGUCAAAUUCGGCGAAACCUAAGCGCCCGCCCGGGCGUAUGGCAACGCAGAGCCAAGCUUCGGCGCCUGCGCCGAUGUAGGUGUAGCGACUAGACGGCACCCACCUAAGGCAAACGAUAUGGUGAAGGCAUAGUCUAGGGAGUGGCGAAAGUCACACAAACCGG [C82A A111U A120C C150A C169U], for which the reverse-splicing fitness came out at 0.0129.
Turning to GUGCCUUGCGCCGGGAAACCACGCAAGGGAUGGUGUCAAAUUCGGCGAAACCUAAGCGCCCGCCCGGGCGUAUGGCAACGCAGAGCCAAGCUUCGGCGCCUGCGCCGAUGCAGGUGUAGAGACUAGACGGCACCCACCUAAGGCGAACGAUAUGGUGAAGGCAUAGUCAAGGGAGCGGCGAAAGUCACACAAACCGG [C82A A111C A145G C150A C169A U176C], the reverse-splicing fitness came to 0.0191.
With GUGCCUUGCGCCGGGAAACCACGCAAGGGAUGGUGUCAAAUUCGGCGAAACCUAAGCGCCCGCCCGGGCGUAUGGCAACGCUGAGCCAAGCUUCGGCGCCUGCGCCGAUGGAGGUGUAGCGACUAGACGGCACCCACCUAAGGCAAACGAUAUGGUGAAGGCAUAGUCUAGGGAGUGGCGAAAGUCACACAAACCGG [C82U A111G A120C C150A C169U], the reverse-splicing fitness stood at 0.0114.
On to GUGCCUUGCGCCGGGAAACCACGCAAGGGAUGGUGUCAAAUUCGGCGAAACCUAAGCGCCCGCCCGGGCGUAUGGCAACGCCGAGCCAAGCUUCGGCGCCUGCGCCGAUGUAGGUGUAGAGACUAGACGGCACCCACCUAAGGCAAACGUUAUGGUGAAGGCAUAGUCCAGGGAGUGGCGAAAGUCACACAAACCGG [A111U C150U], for which the reverse-splicing fitness was determined as 0.89.
The value for GUGCCUUGCGCCGGGAAACCACGCAAGGGAUGGUGUCAAAUUCGGCGAAACCUAAGCGCCCGCCCGGGCGUAUGGCAACGCGGAGCCAAGCUUCGGCGCCUGCGCCGAUGGAGGUGUAGAGACUAGACGGCACCCACCUAAGGCGAACGUUAUGGUGAAGGCAUAGUCGAGGGAGCGGCGAAAGUCACACAAACCGG [C82G A111G A145G C150U C169G U176C] was 0.0216; that for GUGCCUUGCGCCGGGAAACCACGCAAGGGAUGGUGUCAAAUUCGGCGAAACCUAAGCGCCCGCCCGGGCGUAUGGCAACGCCGAGCCAAGCUUCGGCGCCUGCGCCGAUGCAGGUGUAGAGACUAGACGGCACCCACCUAAGGCCAACGCUAUGGUGAAGGCAUAGUCCAGGGAGAGGCGAAAGUCACACAAACCGG [A111C A145C U176A] was 0.402; that for GUGCCUUGCGCCGGGAAACCACGCAAGGGAUGGUGUCAAAUUCGGCGAAACCUAAGCGCCCGCCCGGGCGUAUGGCAACGCUGAGCCAAGCUUCGGCGCCUGCGCCGAUGAAGGUGUAGAGACUAGACGGCACCCACCUAAGGCGAACGUUAUGGUGAAGGCAUAGUCCAGGGAGCGGCGAAAGUCACACAAACCGG [C82U A145G C150U U176C] was 0.372.
The value for GUGCCUUGCGCCGGGAAACCACGCAAGGGAUGGUGUCAAAUUCGGCGAAACCUAAGCGCCCGCCCGGGCGUAUGGCAACGCGGAGCCAAGCUUCGGCGCCUGCGCCGAUGUAGGUGUAGUGACUAGACGGCACCCACCUAAGGCGAACGAUAUGGUGAAGGCAUAGUCUAGGGAGCGGCGAAAGUCACACAAACCGG [C82G A111U A120U A145G C150A C169U U176C] was 0.00514.
For the variant GUGCCUUGCGCCGGGAAACCACGCAAGGGAUGGUGUCAAAUUCGGCGAAACCUAAGCGCCCGCCCGGGCGUAUGGCAACGCAGAGCCAAGCUUCGGCGCCUGCGCCGAUGUAGGUGUAGAGACUAGACGGCACCCACCUAAGGCGAACGUUAUGGUGAAGGCAUAGUCAAGGGAGUGGCGAAAGUCACACAAACCGG [C82A A111U A145G C150U C169A], the reverse-splicing fitness turned out to be 0.0109.
